Columns and labels:
[1] = biological target: T1, Drosophila melanogaster full-length secreted semaphorin-2a (Sema2a_(full)) (Drosophila melanogaster, UniProt Q24323 26-724); assay: MST; plexin-mVenus kept constant, unlabelled semaphorin titrated (1:1 dilution series); 25 °C; 15 mM HEPES pH 7.4, 150 mM NaCl, 2 mM CaCl2, 0.005% Tween-20; 1 h incubation at room temperature; apparent Kd; settings: both partners purified
T1 construct: Semaphorin-2a, Drosophila melanogaster, residues 26D-724V; Disulfide-linked dimer in solution; source: HEK293T (37 °C), transient transfection, purified (HisTrap, SEC)
T1 sequence (looked up): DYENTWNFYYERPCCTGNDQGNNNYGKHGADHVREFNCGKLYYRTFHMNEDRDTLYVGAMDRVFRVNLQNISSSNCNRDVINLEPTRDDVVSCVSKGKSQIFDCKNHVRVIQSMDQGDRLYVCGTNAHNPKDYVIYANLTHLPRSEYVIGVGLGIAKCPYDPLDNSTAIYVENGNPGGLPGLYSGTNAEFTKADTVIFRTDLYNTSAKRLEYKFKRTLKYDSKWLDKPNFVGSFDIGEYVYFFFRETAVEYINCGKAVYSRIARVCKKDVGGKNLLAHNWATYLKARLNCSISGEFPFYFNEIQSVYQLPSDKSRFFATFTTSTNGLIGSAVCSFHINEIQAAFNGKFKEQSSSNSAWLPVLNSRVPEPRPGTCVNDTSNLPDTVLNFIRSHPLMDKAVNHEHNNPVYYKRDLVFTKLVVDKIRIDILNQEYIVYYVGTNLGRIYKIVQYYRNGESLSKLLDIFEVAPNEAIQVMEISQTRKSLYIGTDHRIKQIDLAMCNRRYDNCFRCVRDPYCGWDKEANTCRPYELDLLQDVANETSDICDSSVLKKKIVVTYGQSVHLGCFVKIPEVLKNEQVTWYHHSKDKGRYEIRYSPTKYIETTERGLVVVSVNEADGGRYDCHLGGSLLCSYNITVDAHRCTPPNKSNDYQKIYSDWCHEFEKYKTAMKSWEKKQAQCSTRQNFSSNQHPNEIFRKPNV

[2] = biological target: T2, mouse Sema3A (residues 26–730, furin sites mutated) with C-terminal 3C-Avi-His6 tag (mouse, UniProt O08665 26-730, R551A (printed: R551, 555A) | R555A (printed: R551, 555A)); assay: pull-down; HEK293T co-transfected with a His6-tagged and a TwinStrep-tagged semaphorin; conditioned medium 5 days post transfection; two-step affinity chromatography (HisTrap, then StrepTactin); western blot and SDS-PAGE of flow-through and eluate; settings: partners not purified
T2 construct: Semaphorin-3A, mouse, residues 26-730, furin cleavage sites mutated (R551, 555A); also called Sema3A-His6; source: HEK293T, transient co-transfection, secreted into conditioned medium; not shown: His6, C-terminal, kept
T2 sequence (looked up): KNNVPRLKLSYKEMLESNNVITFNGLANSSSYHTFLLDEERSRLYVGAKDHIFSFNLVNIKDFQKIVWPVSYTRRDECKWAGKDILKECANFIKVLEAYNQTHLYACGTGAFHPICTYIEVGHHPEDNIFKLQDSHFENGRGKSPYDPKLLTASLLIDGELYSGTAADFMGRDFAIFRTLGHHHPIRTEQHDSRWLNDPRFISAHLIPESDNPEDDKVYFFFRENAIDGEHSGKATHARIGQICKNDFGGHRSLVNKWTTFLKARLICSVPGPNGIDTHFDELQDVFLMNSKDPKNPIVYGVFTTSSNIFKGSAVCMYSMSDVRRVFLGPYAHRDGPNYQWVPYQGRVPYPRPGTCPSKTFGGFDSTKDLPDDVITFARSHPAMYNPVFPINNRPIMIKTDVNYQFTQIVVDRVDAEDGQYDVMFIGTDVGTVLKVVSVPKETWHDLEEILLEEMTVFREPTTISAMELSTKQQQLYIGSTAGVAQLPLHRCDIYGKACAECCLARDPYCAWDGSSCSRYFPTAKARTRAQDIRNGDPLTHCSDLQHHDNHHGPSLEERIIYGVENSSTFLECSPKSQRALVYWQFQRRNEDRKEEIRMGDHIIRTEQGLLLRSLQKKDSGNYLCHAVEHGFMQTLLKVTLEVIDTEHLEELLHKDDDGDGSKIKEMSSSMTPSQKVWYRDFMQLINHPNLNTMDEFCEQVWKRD

[3] = biological target: the molecule itself; assay: crystal structure; sitting-drop vapour diffusion at 20 °C; data at 100 K

B1: Drosophila melanogaster PlexB1–4-mVenus (receptor, UniProt Q9V4A7 35-730, looked up)
chain: EELPAQALSPLNDIVAQFNLPSIPVQSTASSYGNRSIGNNIESVRDSQSKNYFTHMSFDFMHNVLFAGATNKILKLNENLRVLAEAVTGPLHDSPQCHAGGCPEDIETSLVNNFNKILVVSYAHDGILIACGSIRQGACEIYSLPRFPATPQFFAVPLAANDENASTYAFVGPARYAWKEEDILYVGTTFTNVGDYRHDVPAISSRRLDDLNYAEFSIQQSIINIDVKYRDHFLVDYIYGFNSSEYAYFIIVQKKSHLADEAGYVTRLARICITDPNYDSYTEITVQCTATENNVDYNIVRDAKVTPASHKLAQKMGIKKDDHVLVTVFSPSREISNQPESKSAMCIYSIKDIEDMFIENIHLCFNGTTKDRNLGYISGTINDGRCPIVGSLGNIYNFCSVGLKISGVSPITAHALFHFDNVSVTSVTATSTTDQQHSLAFLGTNMGVIKKVLLSGQSPGEYEEIVVDAGNRILPNTMMSPKKDFLYVLSQRKITKLRIEHCSVYTNCSACLESRDPFCGWCSLEKRCTVRSTCQRDTSASRWLSLGSGQQCIEFESIIPEKIPISELSHLHLIIRTLPEPFNAKYRCVFGNSTPIDAEILENGLGCATPPLDERPLIPTNTDHILVPLSVRSSETNKDFVSRNFAFFDCSHHGNCQECLQSSWGCNWCIFDNKCVHKSLQCRNIENAVSTVGHCP
notes: Plexin B, Drosophila melanogaster, domains 1-4 of the ectodomain, residues 35E-730P; source: High Five cells (Trichoplusia ni), baculovirus (pBacPAK9, GP64 signal peptide), purified (HisTrap, SEC); not shown: mVenus, C-terminal, kept
Kd [1]: 25 nM

B2: mouse Sema3C (residues 22–711, furin sites mutated) with C-terminal TwinStrep tag (ligand, UniProt Q62181 22-711, looked up)
chain: SSQPQARVYLTFDELRETKTSEYFSLSHQQLDYRILLMDEDQDRIYVGSKDHILSLNINNISQEPLSVFWPASTIKVEECKMAGKDPTHGCGNFVRVIQTFNRTHLYVCGSGAFSPVCTYLNRGRRSEDQVFMIDSKCESGKGRCSFNPNVNTVSVMINEELFSGMYIDFMGTDAAIFRSLTKRNAVRTDQHNSKWLSEPMFVDAHVIPDGTDPNDAKVYFFFKERLTDNNRSTKQIHSMIARICPNDTGGQRSLVNKWTTFLKARLVCSVTDEDGPETHFDELEDVFLLETDNPRTTLVYGIFTTSSSVFKGSAVCVYHLSDIQTVFNGPFAHKEGPNHQLISYQGRIPYPRPGTCPGGAFTPNMRTTKDFPDDVVTFIRNHPLMYNSIYPIHRRPLIVRIGTDYKYTKIAVDRVNAADGRYHVLFLGTDRGTVQKVVVLPTNSSASGELILEELEVFKNHVPITTMKISSKKQQLYVSSNEGVSQVSLHRCHIYGTACADCCLARDPYCAWDGHSCSRFYPTGKARSRAQDVRHGNPLTQCRGFNLKAYRNAAEIVQYGVRNNSTFLECAPKSPQASIKWLLQKDKDRRKEVKLNERIIATSQGLLIRSVQDSDQGLYHCIATENSFKQTIAKINFKVLDSEMVAVVTDKWSPWTWAGSVRALPFHPKDILGAFSHSEMQLINQYCKD
notes: Semaphorin-3C, mouse, residues 22-711, furin cleavage sites mutated (R548, 552A); also called Sema3C-TwinStrep; source: HEK293T, transient co-transfection, secreted into conditioned medium; not shown: TwinStrep, C-terminal, kept
stoichiometry N [2]: 1

B3: Drosophila melanogaster Sema2a1–3 (sema, PSI and Ig-like domains) (domain or fragment, UniProt Q24323 27-671, looked up)
chain: YENTWNFYYERPCCTGNDQGNNNYGKHGADHVREFNCGKLYYRTFHMNEDRDTLYVGAMDRVFRVNLQNISSSNCNRDVINLEPTRDDVVSCVSKGKSQIFDCKNHVRVIQSMDQGDRLYVCGTNAHNPKDYVIYANLTHLPRSEYVIGVGLGIAKCPYDPLDNSTAIYVENGNPGGLPGLYSGTNAEFTKADTVIFRTDLYNTSAKRLEYKFKRTLKYDSKWLDKPNFVGSFDIGEYVYFFFRETAVEYINCGKAVYSRIARVCKKDVGGKNLLAHNWATYLKARLNCSISGEFPFYFNEIQSVYQLPSDKSRFFATFTTSTNGLIGSAVCSFHINEIQAAFNGKFKEQSSSNSAWLPVLNSRVPEPRPGTCVNDTSNLPDTVLNFIRSHPLMDKAVNHEHNNPVYYKRDLVFTKLVVDKIRIDILNQEYIVYYVGTNLGRIYKIVQYYRNGESLSKLLDIFEVAPNEAIQVMEISQTRKSLYIGTDHRIKQIDLAMCNRRYDNCFRCVRDPYCGWDKEANTCRPYELDLLQDVANETSDICDSSVLKKKIVVTYGQSVHLGCFVKIPEVLKNEQVTWYHHSKDKGRYEIRYSPTKYIETTERGLVVVSVNEADGGRYDCHLGGSLLCSYNITVDAHRCTPPNK
notes: Semaphorin-2a, Drosophila melanogaster, sema-PSI-Ig, residues 27Y-671K; Disulfide-linked dimer in the crystal; source: HEK293S-GnTI- or HEK293T with kifunensine, transient transfection, purified (HisTrap, SEC)
binding result [3]: binds

Source: article PMC6695400, “Diversity of oligomerization in Drosophila semaphorins suggests a mechanism of functional fine-tuning” (Nature Communications, 2019)
